Target: T1, TIM-3/Galectin-9 interaction (Homo sapiens, UniProt Q8TDQ0)
T1 construct: purchased R&D Systems
Assay: Plate-based (MesoScale) competition assay of the TIM-3/Galectin-9 interaction
Assay type: binding
Conditions: serial dilutions of antibody; labeled Galectin-9 100 nM
Method: FIG. 1 is a graph depicting the impact of MBG453 on the interaction between TIM3 and galectin-9. Competition was assessed as a measure of the ability of the antibody to block Gal9-SULFOTag signal to TIM-3 receptor, which is shown on the Y-axis. Concentration of the antibody is shown on the X-axis.
TIM-3 fusion protein (R&D Systems) was coated on a standard MesoScale 96 well plate (Meso Scale Discovery) at 2 μg/ml in PBS (Phosphate Buffered Saline) and incubated for six hours at room temperature. The plate was washed three times with PBST (PBS buffer containing 0.05% Tween-20) and blocked with PBS containing 5% Probumin (Millipore) overnight at 4° C. After incubation, the plate was washed three times with PBST and unlabeled antibody (F38-2E2 (BioLegend); MBG453; MBG453 F(ab′)2; MBG453 F(ab); or control recombinant human Galectin-9 protein) diluted in Assay Diluent (2% Probumin, 0.1% Tween-20, 0.1% Triton X-100 (Sigma) with 10% StabilGuard (SurModics)), was added in serial dilutions to the plate and incubated for one hour on an orbital shaker at room temperature. […] The plate was again washed three times with PBST, and Read Buffer T (1×) was added to the plate. The plate was read on MA600 Imager, and competition was assessed as a measure of the ability of the antibody to block Gal9-SULFOTag signal to TIM-3 receptor.

B1: control Galectin-9 protein: unlabeled control recombinant human Galectin-9 protein (protein)
chain: AFSGSQAPYLSPAVPFSGTIQGGLQDGLQITVNGTVLSSSGTRFAVNFQTGFSGNDIAFHFNPRFEDGGYVVCNTRQNGSWGPEERKTHMPFQKGMPFDLCFLVQSSDFKVMVNGILFVQYFHRVPFHRVDTISVNGSVQLSYISFQPPGVWPANPAPITQTVIHTVQSAPGQMFSTPAIPPMMYPHPAYPMPFITTILGGLYPSKSILLSGTVLPSAQRFHINLCSGNHIAFHLNPRFDENAVVRNTQIDNSWGSEERSLPRKMPFVRGQSFSVWILCEAHCLKVAVDGQHLFEYYHRLRNLPTINRLEVGGDIQLTHVQT
block of the interaction between TIM-3 and Galectin-9 (Gal9-SULFOTag signal to TIM-3): did not

Reference: patent US20230057071A1 (NOVARTIS AG, priority 2019, published 2023)
